Source: US20200199241A1 (Chugai, published 2020)

Biological target: T1, human FcRn (soluble human FcRn complexed with β2-microglobulin) (human, UniProt P61769 21-119, limits assumed)
T1 construct: also called hFcRn
Test: SPR, pH 7.0;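 note: antibodies captured on a Protein L sensor chip with human FcRn injected as analyte, KD calculated from fitted association and dissociation rate constants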

Row | Binder | Kd [nM]
1 | IgG1-F460 (antibody, EU numbering; copies: 2 + 2) heavy: QVQLQESGPGLVKPSETLSLTCAVSGHSISHDHAWSWVRQPPGEGLEWIGFISYSGITNYNPSLQGRVTISRDNSKNTLYLQMNSLRAEDTAVYYCARSLARTTAMDYWGEGTLVTVSSASTKGPSVFPLAPSSKSTSGGTAALGCLVKDYFPEPVTVSWNSGALTSGVHTFPAVLQSSGLYSLSSVVTVPSSSLGTQTYICNVNHKPSNTKVDKKVEPKSCDKTHTCPPCPAPELLGGPSVFLFPPKPKDTLMISRTVEVTCVVVDVSHEDPEVKFNWYVDGVEVHNAKTKPREEQYNSTYRVVSVLAPLHQDWLNGKEYKCKVSGKALPAPIEKTISKAKGQPREPQVYTLPPSRDELTKNQVSLTCLVKGFYPSDIAVEWESNGQPENNYKTTPPVLDSDGSFFLYSKLTVDKSRWQQGNVFSCSVLHEALHYHYTQKSLSLSP light: not shown | 47
2 | IgG1-F466 (antibody, EU numbering; copies: 2 + 2) heavy: QVQLQESGPGLVKPSETLSLTCAVSGHSISHDHAWSWVRQPPGEGLEWIGFISYSGITNYNPSLQGRVTISRDNSKNTLYLQMNSLRAEDTAVYYCARSLARTTAMDYWGEGTLVTVSSASTKGPSVFPLAPSSKSTSGGTAALGCLVKDYFPEPVTVSWNSGALTSGVHTFPAVLQSSGLYSLSSVVTVPSSSLGTQTYICNVNHKPSNTKVDKKVEPKSCDKTHTCPPCPAPELLGGPSVFLFPPKPKDTLMISREVEVTCVVVDVSHEDPEVKFNWYVDGVEVHNAKTKPREEQYNSTYRVVSVLTVLHQDWLNGKEYKCKVSNKALPAPIEKTISKAKGQPREPQVYTLPPSRDELTKNQVSLTCLVKGFYPSDIAVEWESNGQPENNYKTTPPVLDSDGSFFLYSKLTVDKSRWQQGNVFSCSVMHEALHYHYTQKSLSLSP light: not shown | 350
3 | IgG1-F470 (antibody, EU numbering; copies: 2 + 2) heavy: QVQLQESGPGLVKPSETLSLTCAVSGHSISHDHAWSWVRQPPGEGLEWIGFISYSGITNYNPSLQGRVTISRDNSKNTLYLQMNSLRAEDTAVYYCARSLARTTAMDYWGEGTLVTVSSASTKGPSVFPLAPSSKSTSGGTAALGCLVKDYFPEPVTVSWNSGALTSGVHTFPAVLQSSGLYSLSSVVTVPSSSLGTQTYICNVNHKPSNTKVDKKVEPKSCDKTHTCPPCPAPELLGGPSVFLFPPKPKDTLMISRETEVTCVVVDVSHEDPEVKFNWYVDGVEVHNAKTKPREEQYNSTYRVVSVLTPLHQDWLNGKEYKCKVSGKALPAPIEKTISKAKGQPREPQVYTLPPSRDELTKNQVSLTCLVKGFYPSDIAVEWESNGQPENNYKTTPPVLDSDGSFFLYSKLTVDKSRWQQGNVFSCSVLHEALHYHYTQKSLSLSP light: not shown | 54
4 | IgG1-F474 (antibody, EU numbering; copies: 2 + 2) heavy: QVQLQESGPGLVKPSETLSLTCAVSGHSISHDHAWSWVRQPPGEGLEWIGFISYSGITNYNPSLQGRVTISRDNSKNTLYLQMNSLRAEDTAVYYCARSLARTTAMDYWGEGTLVTVSSASTKGPSVFPLAPSSKSTSGGTAALGCLVKDYFPEPVTVSWNSGALTSGVHTFPAVLQSSGLYSLSSVVTVPSSSLGTQTYICNVNHKPSNTKVDKKVEPKSCDKTHTCPPCPAPELLGGPSVFLFPPKPKDTLMISRTTEVTCVVVDVSHEDPEVKFNWYVDGVEVHNAKTKPREEQYNSTYRVVSVLTPRHQDWLNGKEYKCKVSGKALPAPIEKTISKAKGQPREPQVYTLPPSRDELTKNQVSLTCLVKGFYPSDIAVEWESNGQPENNYKTTPPVLDSDGSFFLYSKLTVDKSRWQQGNVFSCSVLHEALHYHYTQKSLSLSP light: not shown | 350
5 | IgG1-F463 (antibody, EU numbering; copies: 2 + 2) heavy: QVQLQESGPGLVKPSETLSLTCAVSGHSISHDHAWSWVRQPPGEGLEWIGFISYSGITNYNPSLQGRVTISRDNSKNTLYLQMNSLRAEDTAVYYCARSLARTTAMDYWGEGTLVTVSSASTKGPSVFPLAPSSKSTSGGTAALGCLVKDYFPEPVTVSWNSGALTSGVHTFPAVLQSSGLYSLSSVVTVPSSSLGTQTYICNVNHKPSNTKVDKKVEPKSCDKTHTCPPCPAPELLGGPSVFLFPPKPKDTLMISRTAEVTCVVVDVSHEDPEVKFNWYVDGVEVHNAKTKPREEQYNSTYRVVSVLAPLHQDWLNGKEYKCKVSNKALPAPIEKTISKAKGQPREPQVYTLPPSRDELTKNQVSLTCLVKGFYPSDIAVEWESNGQPENNYKTTPPVLDSDGSFFLYSKLTVDKSRWQQGNVFSCSVLHEALHYHYTQKSLSLSP light: not shown | 130
6 | IgG1-F467 (antibody, EU numbering; copies: 2 + 2) heavy: QVQLQESGPGLVKPSETLSLTCAVSGHSISHDHAWSWVRQPPGEGLEWIGFISYSGITNYNPSLQGRVTISRDNSKNTLYLQMNSLRAEDTAVYYCARSLARTTAMDYWGEGTLVTVSSASTKGPSVFPLAPSSKSTSGGTAALGCLVKDYFPEPVTVSWNSGALTSGVHTFPAVLQSSGLYSLSSVVTVPSSSLGTQTYICNVNHKPSNTKVDKKVEPKSCDKTHTCPPCPAPELLGGPSVFLFPPKPKDTLMISRETEVTCVVVDVSHEDPEVKFNWYVDGVEVHNAKTKPREEQYNSTYRVVSVLTVLHQDWLNGKEYKCKVSNKALPAPIEKTISKAKGQPREPQVYTLPPSRDELTKNQVSLTCLVKGFYPSDIAVEWESNGQPENNYKTTPPVLDSDGSFFLYSKLTVDKSRWQQGNVFSCSVMHEALHYHYTQKSLSLSP light: not shown | 570

Next, values leading:

Row | Kd [nM] | Binder
7 | 57 | IgG1-F468 (antibody, EU numbering; copies: 2 + 2) heavy: QVQLQESGPGLVKPSETLSLTCAVSGHSISHDHAWSWVRQPPGEGLEWIGFISYSGITNYNPSLQGRVTISRDNSKNTLYLQMNSLRAEDTAVYYCARSLARTTAMDYWGEGTLVTVSSASTKGPSVFPLAPSSKSTSGGTAALGCLVKDYFPEPVTVSWNSGALTSGVHTFPAVLQSSGLYSLSSVVTVPSSSLGTQTYICNVNHKPSNTKVDKKVEPKSCDKTHTCPPCPAPELLGGPKVFLFPPKPKDTLMISRTTEVTCVVVDVSHEDPEVKFNWYVDGVEVHNAKTKPREEQYNSTYRVVSVLTPLHQDWLNGKEYKCKVSNKALPAPIEKTISKAKGQPREPQVYTLPPSRDELTKNQVSLTCLVKGFYPSDIAVEWESNGQPENNYKTTPPVLDSDGSFFLYSKLTVDKSRWQQGNVFSCSVLHEALHYHYTQKSLSLSP light: not shown
8 | 450 | IgG1-F473 (antibody, EU numbering; copies: 2 + 2) heavy: QVQLQESGPGLVKPSETLSLTCAVSGHSISHDHAWSWVRQPPGEGLEWIGFISYSGITNYNPSLQGRVTISRDNSKNTLYLQMNSLRAEDTAVYYCARSLARTTAMDYWGEGTLVTVSSASTKGPSVFPLAPSSKSTSGGTAALGCLVKDYFPEPVTVSWNSGALTSGVHTFPAVLQSSGLYSLSSVVTVPSSSLGTQTYICNVNHKPSNTKVDKKVEPKSCDKTHTCPPCPAPELLGGPSVFLFPPKPKDTLMISRTTEVTCVVVDVSHEDPEVKFNWYVDGVEVHNAKTKPREEQYNSTYRVVSVLTPPHQDWLNGKEYKCKVSGKALPAPIEKTISKAKGQPREPQVYTLPPSRDELTKNQVSLTCLVKGFYPSDIAVEWESNGQPENNYKTTPPVLDSDGSFFLYSKLTVDKSRWQQGNVFSCSVLHEALHYHYTQKSLSLSP light: not shown
9 | 55 | IgG1-F464 (antibody, EU numbering; copies: 2 + 2) heavy: QVQLQESGPGLVKPSETLSLTCAVSGHSISHDHAWSWVRQPPGEGLEWIGFISYSGITNYNPSLQGRVTISRDNSKNTLYLQMNSLRAEDTAVYYCARSLARTTAMDYWGEGTLVTVSSASTKGPSVFPLAPSSKSTSGGTAALGCLVKDYFPEPVTVSWNSGALTSGVHTFPAVLQSSGLYSLSSVVTVPSSSLGTQTYICNVNHKPSNTKVDKKVEPKSCDKTHTCPPCPAPELLGGPSVFLFPPKPKDTLMISRTAEVTCVVVDVSHEDPEVKFNWYVDGVEVHNAKTKPREEQYNSTYRVVSVLQPLHQDWLNGKEYKCKVSNKALPAPIEKTISKAKGQPREPQVYTLPPSRDELTKNQVSLTCLVKGFYPSDIAVEWESNGQPENNYKTTPPVLDSDGSFFLYSKLTVDKSRWQQGNVFSCSVLHEALHYHYTQKSLSLSP light: not shown
10 | 54 | IgG1-F472 (antibody, EU numbering; copies: 2 + 2) heavy: QVQLQESGPGLVKPSETLSLTCAVSGHSISHDHAWSWVRQPPGEGLEWIGFISYSGITNYNPSLQGRVTISRDNSKNTLYLQMNSLRAEDTAVYYCARSLARTTAMDYWGEGTLVTVSSASTKGPSVFPLAPSSKSTSGGTAALGCLVKDYFPEPVTVSWNSGALTSGVHTFPAVLQSSGLYSLSSVVTVPSSSLGTQTYICNVNHKPSNTKVDKKVEPKSCDKTHTCPPCPAPELLGGPSVFLFPPKPKDTLMISRTTEVTCVVVDVSHEDPEVKFNWYVDGVEVHNAKTKPREEQYNSTYRVVSVLTPLHQDWLNGKEYKCKVSGKALPAPIEKTISKAKGQPREPQVYTLPPSRDELTKNQVSLTCLVKGFYPSDIAVEWESNGQEENNYKTTPPVLDSDGSFFLYSKLTVDKSRWQQGNVFSCSVLHEALHYHYTQKSLSLSP light: not shown
11 | 56 | IgG1-F469 (antibody, EU numbering; 'N3250' read as N325G; copies: 2 + 2) heavy: QVQLQESGPGLVKPSETLSLTCAVSGHSISHDHAWSWVRQPPGEGLEWIGFISYSGITNYNPSLQGRVTISRDNSKNTLYLQMNSLRAEDTAVYYCARSLARTTAMDYWGEGTLVTVSSASTKGPSVFPLAPSSKSTSGGTAALGCLVKDYFPEPVTVSWNSGALTSGVHTFPAVLQSSGLYSLSSVVTVPSSSLGTQTYICNVNHKPSNTKVDKKVEPKSCDKTHTCPPCPAPELLGGPSVFLFPPKPKDTLMISRTTEVTCVVVDVSHEDPEVKFNWYVDGVEVHNAKTKPREEQYNSTYRVVSVLTPLHQDWLNGKEYKCKVSGKALPAPIEKTISKAKGQPREPQVYTLPPSRDELTKNQVSLTCLVKGFYPSDIAVEWESNGQPENNYKTTPPVLDSDGSFFLYSKLTVDKSRWQQGNVFSCSVLHEALHYHYTQKSLSLSP light: not shown
12 | 66 | IgG1-F471 (antibody, EU numbering; copies: 2 + 2) heavy: QVQLQESGPGLVKPSETLSLTCAVSGHSISHDHAWSWVRQPPGEGLEWIGFISYSGITNYNPSLQGRVTISRDNSKNTLYLQMNSLRAEDTAVYYCARSLARTTAMDYWGEGTLVTVSSASTKGPSVFPLAPSSKSTSGGTAALGCLVKDYFPEPVTVSWNSGALTSGVHTFPAVLQSSGLYSLSSVVTVPSSSLGTQTYICNVNHKPSNTKVDKKVEPKSCDKTHTCPPCPAPELLGGPSVFLFPPKPKDTLMISRTTEVTCVVVDVSHEDPEVKFNWYVDGVEVHNAKTKPREEQYNSTYRVVSVLTPLHQDWLNGKEYKCKVSGKALPAPIEKTISKAKGQPREPQVYTLPPSRDELTKNQVSLTCLVKGFYPSDIAVEWASNGQPENNYKTTPPVLDSDGSFFLYSKLTVDKSRWQQGNVFSCSVLHEALHYHYTQKSLSLSP light: not shown
13 | 21 | IgG1-F465 (antibody, EU numbering; copies: 2 + 2) heavy: QVQLQESGPGLVKPSETLSLTCAVSGHSISHDHAWSWVRQPPGEGLEWIGFISYSGITNYNPSLQGRVTISRDNSKNTLYLQMNSLRAEDTAVYYCARSLARTTAMDYWGEGTLVTVSSASTKGPSVFPLAPSSKSTSGGTAALGCLVKDYFPEPVTVSWNSGALTSGVHTFPAVLQSSGLYSLSSVVTVPSSSLGTQTYICNVNHKPSNTKVDKKVEPKSCDKTHTCPPCPAPELLGGPSVFLFPPKPKDTLMISRTVEVTCVVVDVSHEDPEVKFNWYVDGVEVHEAKTKPREEQYNSTYRVVSVLQVLHQDWLNGKEYKCKVSGKALPAPIEKTISKAKGQPREPQVYTLPPSRDELTKNQVSLTCLVKGFYPSDIAVEWESNGQPENNYKTTPPVLDSDGSFFLYSKLTVDKSRWQQGNVFSCSVLHEALHYHYTQKSLSLSP light: not shown
